Test results: patent publication US20100092497A1, “METHODS OF IMMUNE OR HAEMATOLOGICAL ENHANCEMENT, INHIBITING TUMOUR FORMATION OR GROWTH, AND TREATING OR PREVENTING CANCER” (priority 2006, published 2010)

Assays:
[1] = tested on: EL-4 T cell thymic lymphoma; assay: EL-4 tumour challenge in mice fed experimental diets (tumour growth, rejection, response to paclitaxel); assay type: in vivo, C57BL/6 mice; conditions: for tumour response after paclitaxel: paclitaxel 30 mg/Kg i.p. at ~0.6 cm; for rank of efficacy in sensitising tumours to paclitaxel: diet 20 g Lf per 2.4 Kg plus paclitaxel 30 mg/Kg
EL-4 target cells = assay: Anti-tumour cytolytic activity of splenocytes (CTL assay); assay type: cell-based, mouse; conditions: for increase in anti-tumour cytolytic activity of splenocytes compared to control mice: Example 1, day 77; for increase in anti-tumour cytolytic activity of splenocytes: Example 2, after paclitaxel
Description: Splenocytes were harvested 28 days following tumour cell injection, as specified. They were incubated at 37° C. with EL-4 target cells in graded E:T ratios in 96-well round-bottom plates. After a 4-hour incubation, 50 μl of supernatant was collected, and lysis was measured using the Cyto Tox 96 Assay Kit (Promega, Madison, Wis., USA). Background controls for non-specific target and effector cell lysis were included. After background subtraction, percentage of cell lysis was calculated using the formula: 100×(experimental-spontaneous effector-spontaneous target/maximum target-spontaneous target).

IL-18 = conditions: as reported in WO 03/099323; cited from earlier work
[2] = 20 g Lf per 2.4 Kg diet in combination with paclitaxel treatment

B1: Fe-saturated Lf: Bovine lactoferrin of ~100% Fe saturation prepared with ferric nitrilo-triacetate (protein, UniProt P24627 20-708, looked up)
Lactotransferrin: APRKNVRWCTISQPEWFKCRRWQWRMKKLGAPSITCVRRAFALECIRAIAEKKADAVTLDGGMVFEAGRDPYKLRPVAAEIYGTKESPQTHYYAVAVVKKGSNFQLDQLQGRKSCHTGLGRSAGWIIPMGILRPYLSWTESLEPLQGAVAKFFSASCVPCIDRQAYPNLCQLCKGEGENQCACSSREPYFGYSGAFKCLQDGAGDVAFVKETTVFENLPEKADRDQYELLCLNNSRAPVDAFKECHLAQVPSHAVVARSVDGKEDLIWKLLSKAQEKFGKNKSRSFQLFGSPPGQRDLLFKDSALGFLRIPSKVDSALYLGSRYLTTLKNLRETAEEVKARYTRVVWCAVGPEEQKKCQQWSQQSGQNVTCATASTTDDCIVLVLKGEADALNLDGGYIYTAGKCGLVPVLAENRKSSKHSSLDCVLRPTEGYLAVAVVKKANEGLTWNSLKDKKSCHTAVDRTAGWNIPMGLIVNQTGSCAFDEFFSQSCAPGADPKSRLCALCAGDDQGLDKCVPNSKEKYYGYTGAFRCLAEDVGDVAFVKNDTVWENTNGESTADWAKNLNREDFRLLCLDGTRKPVTEAQSCHLAVAPNHAVVSRSDRAAHVKQVLLHQQALFGKNGKNCPDKFCLFKSETKNLLFNDNTECLAKLGGRPTYEEYLGTEYVTAIANLKKCSTSPLLEACAFLTR
modifications: iron-saturated (holo)
notes: Bovine lactoferrin of ~100% Fe saturation prepared with ferric nitrilo-triacetate
tumour response after paclitaxel in mice on Lf diet ([1]; Example 1, diet 20 g Lf per 2.4 Kg plus paclitaxel 30 mg/Kg i.p. at tumours ~0.6 cm): regressed to less than half their size within two weeks of administering paclitaxel, and disappeared altogether a week later | mice that completely rejected the tumour challenge ([1]; Example 1, diet with 20 g of Lf per 2.4 Kg, ten mice): one of ten | mice that completely rejected the tumour challenge ([1]; Example 2, 1 g Fe-Lf diet): one of ten | tumour growth rate compared to control diet ([1]; Example 2, 5 and 25 g per 2.4 Kg of diet): grew significantly (p<0.05 at days 35-49) more slowly | mice that completely rejected the tumour challenge ([1]; Example 2, 5 g Fe-Lf diet): two of ten | mice that completely rejected the tumour challenge ([1]; Example 2, 25 g Fe-Lf diet): three of ten | tumour response after paclitaxel ([1]; Example 2, 100 g per 2.4 Kg of diet): regressed over two weeks, but then re-grew | tumour response after paclitaxel ([1]; Example 2, all but the 100 g Fe-Lf diet (1, 5, 25 g per 2.4 Kg)): rapidly regressed and completely disappeared over the following three to four weeks | tumour growth rate compared to control diet ([1]; Example 2, lowest and highest doses (1 and 100 g per 2.4 Kg of diet)): did not differ greatly from that of mice fed the control diet | increase in anti-tumour cytolytic activity of splenocytes compared to control mice (EL-4 target cells; [2]): 6.5 fold | increase in anti-tumour cytolytic activity of splenocytes compared to control mice (EL-4 target cells; the one mouse which completely resisted the tumour challenge): 6 fold | increase in anti-tumour cytolytic activity of splenocytes (EL-4 target cells; 5 g diet): 6.7 fold | increase in anti-tumour cytolytic activity of splenocytes (EL-4 target cells; 25 g diet): 7 fold | increase in anti-tumour cytolytic activity of splenocytes (EL-4 target cells; 100 g diet): 1.5 fold | increase in anti-tumour cytolytic activity of splenocytes, agent by itself (EL-4 target cells; Example 4, high dose vitamin D (45.2 mg/Kg) by itself or Fe-saturated Lf): 1.9 fold

B2: apoLf: Bovine lactoferrin with Fe removed by citric acid chelation (protein, UniProt P24627 20-708, looked up)
Lactotransferrin: APRKNVRWCTISQPEWFKCRRWQWRMKKLGAPSITCVRRAFALECIRAIAEKKADAVTLDGGMVFEAGRDPYKLRPVAAEIYGTKESPQTHYYAVAVVKKGSNFQLDQLQGRKSCHTGLGRSAGWIIPMGILRPYLSWTESLEPLQGAVAKFFSASCVPCIDRQAYPNLCQLCKGEGENQCACSSREPYFGYSGAFKCLQDGAGDVAFVKETTVFENLPEKADRDQYELLCLNNSRAPVDAFKECHLAQVPSHAVVARSVDGKEDLIWKLLSKAQEKFGKNKSRSFQLFGSPPGQRDLLFKDSALGFLRIPSKVDSALYLGSRYLTTLKNLRETAEEVKARYTRVVWCAVGPEEQKKCQQWSQQSGQNVTCATASTTDDCIVLVLKGEADALNLDGGYIYTAGKCGLVPVLAENRKSSKHSSLDCVLRPTEGYLAVAVVKKANEGLTWNSLKDKKSCHTAVDRTAGWNIPMGLIVNQTGSCAFDEFFSQSCAPGADPKSRLCALCAGDDQGLDKCVPNSKEKYYGYTGAFRCLAEDVGDVAFVKNDTVWENTNGESTADWAKNLNREDFRLLCLDGTRKPVTEAQSCHLAVAPNHAVVSRSDRAAHVKQVLLHQQALFGKNGKNCPDKFCLFKSETKNLLFNDNTECLAKLGGRPTYEEYLGTEYVTAIANLKKCSTSPLLEACAFLTR
modifications: iron-free (apo)
notes: Bovine lactoferrin with Fe removed by citric acid chelation
rank of efficacy in sensitising tumours to paclitaxel ([1]; Example 1): 50% Fe-saturated Lf>native Lf>apoLf | increase in anti-tumour cytolytic activity of splenocytes compared to control mice (EL-4 target cells; [2]): 2.4 fold

B3: 50% Fe-saturated Lf: Bovine lactoferrin supplemented with Fe to ~50% saturation (protein, UniProt P24627 20-708, looked up)
Lactotransferrin: APRKNVRWCTISQPEWFKCRRWQWRMKKLGAPSITCVRRAFALECIRAIAEKKADAVTLDGGMVFEAGRDPYKLRPVAAEIYGTKESPQTHYYAVAVVKKGSNFQLDQLQGRKSCHTGLGRSAGWIIPMGILRPYLSWTESLEPLQGAVAKFFSASCVPCIDRQAYPNLCQLCKGEGENQCACSSREPYFGYSGAFKCLQDGAGDVAFVKETTVFENLPEKADRDQYELLCLNNSRAPVDAFKECHLAQVPSHAVVARSVDGKEDLIWKLLSKAQEKFGKNKSRSFQLFGSPPGQRDLLFKDSALGFLRIPSKVDSALYLGSRYLTTLKNLRETAEEVKARYTRVVWCAVGPEEQKKCQQWSQQSGQNVTCATASTTDDCIVLVLKGEADALNLDGGYIYTAGKCGLVPVLAENRKSSKHSSLDCVLRPTEGYLAVAVVKKANEGLTWNSLKDKKSCHTAVDRTAGWNIPMGLIVNQTGSCAFDEFFSQSCAPGADPKSRLCALCAGDDQGLDKCVPNSKEKYYGYTGAFRCLAEDVGDVAFVKNDTVWENTNGESTADWAKNLNREDFRLLCLDGTRKPVTEAQSCHLAVAPNHAVVSRSDRAAHVKQVLLHQQALFGKNGKNCPDKFCLFKSETKNLLFNDNTECLAKLGGRPTYEEYLGTEYVTAIANLKKCSTSPLLEACAFLTR
modifications: ~50% iron-saturated
rank of efficacy in sensitising tumours to paclitaxel ([1]; Example 1): 50% Fe-saturated Lf>native Lf>apoLf | increase in anti-tumour cytolytic activity of splenocytes compared to control mice (EL-4 target cells; [2]): 1.5 fold

B4: native Lf: Bovine lactoferrin of greater than 90% purity from Fonterra, native Fe saturation (protein, UniProt P24627 20-708, looked up)
Lactotransferrin: APRKNVRWCTISQPEWFKCRRWQWRMKKLGAPSITCVRRAFALECIRAIAEKKADAVTLDGGMVFEAGRDPYKLRPVAAEIYGTKESPQTHYYAVAVVKKGSNFQLDQLQGRKSCHTGLGRSAGWIIPMGILRPYLSWTESLEPLQGAVAKFFSASCVPCIDRQAYPNLCQLCKGEGENQCACSSREPYFGYSGAFKCLQDGAGDVAFVKETTVFENLPEKADRDQYELLCLNNSRAPVDAFKECHLAQVPSHAVVARSVDGKEDLIWKLLSKAQEKFGKNKSRSFQLFGSPPGQRDLLFKDSALGFLRIPSKVDSALYLGSRYLTTLKNLRETAEEVKARYTRVVWCAVGPEEQKKCQQWSQQSGQNVTCATASTTDDCIVLVLKGEADALNLDGGYIYTAGKCGLVPVLAENRKSSKHSSLDCVLRPTEGYLAVAVVKKANEGLTWNSLKDKKSCHTAVDRTAGWNIPMGLIVNQTGSCAFDEFFSQSCAPGADPKSRLCALCAGDDQGLDKCVPNSKEKYYGYTGAFRCLAEDVGDVAFVKNDTVWENTNGESTADWAKNLNREDFRLLCLDGTRKPVTEAQSCHLAVAPNHAVVSRSDRAAHVKQVLLHQQALFGKNGKNCPDKFCLFKSETKNLLFNDNTECLAKLGGRPTYEEYLGTEYVTAIANLKKCSTSPLLEACAFLTR
rank of efficacy in sensitising tumours to paclitaxel ([1]; Example 1): 50% Fe-saturated Lf>native Lf>apoLf | increase in anti-tumour cytolytic activity of splenocytes compared to control mice (EL-4 target cells; [2]): 3.4 fold

B5: bovine lactoferrin: Single-chain iron-binding glycoprotein of 78 kDa present in bovine milk (protein, UniProt P24627 20-708, looked up)
Lactotransferrin: APRKNVRWCTISQPEWFKCRRWQWRMKKLGAPSITCVRRAFALECIRAIAEKKADAVTLDGGMVFEAGRDPYKLRPVAAEIYGTKESPQTHYYAVAVVKKGSNFQLDQLQGRKSCHTGLGRSAGWIIPMGILRPYLSWTESLEPLQGAVAKFFSASCVPCIDRQAYPNLCQLCKGEGENQCACSSREPYFGYSGAFKCLQDGAGDVAFVKETTVFENLPEKADRDQYELLCLNNSRAPVDAFKECHLAQVPSHAVVARSVDGKEDLIWKLLSKAQEKFGKNKSRSFQLFGSPPGQRDLLFKDSALGFLRIPSKVDSALYLGSRYLTTLKNLRETAEEVKARYTRVVWCAVGPEEQKKCQQWSQQSGQNVTCATASTTDDCIVLVLKGEADALNLDGGYIYTAGKCGLVPVLAENRKSSKHSSLDCVLRPTEGYLAVAVVKKANEGLTWNSLKDKKSCHTAVDRTAGWNIPMGLIVNQTGSCAFDEFFSQSCAPGADPKSRLCALCAGDDQGLDKCVPNSKEKYYGYTGAFRCLAEDVGDVAFVKNDTVWENTNGESTADWAKNLNREDFRLLCLDGTRKPVTEAQSCHLAVAPNHAVVSRSDRAAHVKQVLLHQQALFGKNGKNCPDKFCLFKSETKNLLFNDNTECLAKLGGRPTYEEYLGTEYVTAIANLKKCSTSPLLEACAFLTR
intestinal IL-18 levels compared to recombinant human lactoferrin (IL-18): lesser increase | serum levels of IL-18 (IL-18): did not increase
